B1: Hairpin Ribozyme (parent)
chain: GUCCUCUUUCACGUGCGCGUGAAAGAGAGAAGUGAACCAGAGAAACACACGUUGUGGUAUAUUACCUGGUA

Variants of: B1
Assay: self-cleavage, relative activity (ratio to wild type); higher = more cleavage; co-transcriptional
A28U C48G gave a self-cleavage of 0.195.
For A28U C50U, the self-cleavage was 0.1.
Variant A28U C66A has a self-cleavage of 0.194.
A28U G34C gave a self-cleavage of 1.23.
A28U G34U showed a self-cleavage of 1.41.
Work on A28U G40U yielded a self-cleavage of 0.13.
Variant A28U G51A has a self-cleavage of 0.716.
Work on A28U G54A yielded a self-cleavage of 0.32.
With A28U G54C the self-cleavage was 0.219.
With A28U G57A the self-cleavage was 0.152.
With A28U G69C the self-cleavage was 0.219.
A28U U33A showed a self-cleavage of 0.152.
A28U U33C gave a self-cleavage of 0.079.
In the case of A28U U52G, the self-cleavage is reported as 0.374.
For A28U U53C, the self-cleavage was 0.769.
With A28U U55A the self-cleavage was 0.235.
Variant A28U U58C has a self-cleavage of 0.58.
For A28U U60G, the self-cleavage was 0.3.
In the case of A28U U63A, the self-cleavage is reported as 0.128.
Variant A28U U67A has a self-cleavage of 0.0994.
Work on A28U U67C yielded a self-cleavage of 0.12.
Work on A28U U70G yielded a self-cleavage of 0.338.
G29A showed a self-cleavage of 0.126.
In the case of G29A A30G, the self-cleavage is reported as 0.135.
In the case of G29A A31G, the self-cleavage is reported as 0.145.
G29A A31U showed a self-cleavage of 0.178.
In the case of G29A A36C, the self-cleavage is reported as 0.0858.
In the case of G29A A36U, the self-cleavage is reported as 0.278.
Work on G29A A39U yielded a self-cleavage of 0.107.
In the case of G29A A41C, the self-cleavage is reported as 0.053.
For G29A A41G, the self-cleavage was 0.106.
Variant G29A A43G has a self-cleavage of 0.205.
In the case of G29A A43U, the self-cleavage is reported as 0.0816.
In the case of G29A A44C, the self-cleavage is reported as 0.17.
Variant G29A A44G has a self-cleavage of 0.113.
Variant G29A A45C has a self-cleavage of 0.0675.
For G29A A45U, the self-cleavage was 0.0463.
With G29A A47G the self-cleavage was 0.244.
G29A A49G showed a self-cleavage of 0.138.
Variant G29A A59C has a self-cleavage of 0.138.
Work on G29A A59G yielded a self-cleavage of 0.162.
G29A A61U showed a self-cleavage of 0.096.
With G29A A64C the self-cleavage was 0.115.
G29A A64U gave a self-cleavage of 0.134.
G29A A71U gave a self-cleavage of 0.126.
With G29A C38U the self-cleavage was 0.19.
Variant G29A C46A has a self-cleavage of 0.0992.
Variant G29A C46G has a self-cleavage of 0.0584.
G29A C46U showed a self-cleavage of 0.238.
Work on G29A C48A yielded a self-cleavage of 0.131.
With G29A C48U the self-cleavage was 0.0646.
With G29A C50A the self-cleavage was 0.168.
With G29A C65A the self-cleavage was 0.0759.
Variant G29A C65G has a self-cleavage of 0.158.
For G29A C66U, the self-cleavage was 0.194.
For G29A G32U, the self-cleavage was 0.0536.
Work on G29A G34A yielded a self-cleavage of 0.201.
With G29A G40A the self-cleavage was 0.133.
Variant G29A G42C has a self-cleavage of 0.0675.
Work on G29A G42U yielded a self-cleavage of 0.197.
Work on G29A G51A yielded a self-cleavage of 0.138.
Work on G29A G51U yielded a self-cleavage of 0.0861.
For G29A G54A, the self-cleavage was 0.141.
G29A G56U gave a self-cleavage of 0.111.
In the case of G29A G69A, the self-cleavage is reported as 0.117.
G29A U33C gave a self-cleavage of 0.0835.
Variant G29A U52C has a self-cleavage of 0.156.
G29A U53C gave a self-cleavage of 0.234.
Variant G29A U53G has a self-cleavage of 0.0705.
Work on G29A U58A yielded a self-cleavage of 0.165.
Variant G29A U60A has a self-cleavage of 0.137.
G29A U60C gave a self-cleavage of 0.144.
Work on G29A U60G yielded a self-cleavage of 0.0375.
In the case of G29A U62C, the self-cleavage is reported as 0.0819.
With G29A U63A the self-cleavage was 0.124.
G29A U63G showed a self-cleavage of 0.116.
For G29A U67A, the self-cleavage was 0.0562.
G29A U67C showed a self-cleavage of 0.106.
With G29A U67G the self-cleavage was 0.0868.
For G29C, the self-cleavage was 0.133.
With G29C A31G the self-cleavage was 0.187.
G29C A36C gave a self-cleavage of 0.179.
G29C A36U showed a self-cleavage of 0.0836.
Variant G29C A41U has a self-cleavage of 0.103.
In the case of G29C A43U, the self-cleavage is reported as 0.0794.
For G29C A44U, the self-cleavage was 0.18.
Work on G29C A45C yielded a self-cleavage of 0.207.
For G29C A47U, the self-cleavage was 0.093.
Variant G29C A64U has a self-cleavage of 0.192.
Variant G29C A71U has a self-cleavage of 0.21.
For G29C C37A, the self-cleavage was 0.14.
In the case of G29C C37G, the self-cleavage is reported as 0.084.
With G29C C38G the self-cleavage was 0.122.
G29C C38U showed a self-cleavage of 0.145.
G29C C46A gave a self-cleavage of 0.111.
With G29C C46U the self-cleavage was 0.171.
With G29C C48A the self-cleavage was 0.136.
Work on G29C C65U yielded a self-cleavage of 0.135.
Work on G29C C66A yielded a self-cleavage of 0.182.
For G29C C66G, the self-cleavage was 0.137.
Work on G29C C66U yielded a self-cleavage of 0.135.
G29C G42C gave a self-cleavage of 0.142.
With G29C G51A the self-cleavage was 0.125.
G29C G51C showed a self-cleavage of 0.103.
G29C G54U gave a self-cleavage of 0.162.
With G29C G56U the self-cleavage was 0.0807.
G29C G57C showed a self-cleavage of 0.131.
In the case of G29C G68C, the self-cleavage is reported as 0.124.
Work on G29C U33C yielded a self-cleavage of 0.224.
For G29C U33G, the self-cleavage was 0.13.
Work on G29C U53C yielded a self-cleavage of 0.252.
With G29C U55A the self-cleavage was 0.164.
G29C U62C gave a self-cleavage of 0.113.
For G29C U63A, the self-cleavage was 0.217.
Work on G29C U67G yielded a self-cleavage of 0.12.
G29C U70C showed a self-cleavage of 0.133.
For G29U, the self-cleavage was 0.132.
G29U A30C gave a self-cleavage of 0.154.
G29U A35C showed a self-cleavage of 0.11.
In the case of G29U A35G, the self-cleavage is reported as 0.137.
Work on G29U A36U yielded a self-cleavage of 0.104.
For G29U A41G, the self-cleavage was 0.082.
G29U A41U gave a self-cleavage of 0.116.
In the case of G29U A43C, the self-cleavage is reported as 0.0797.
G29U A44C showed a self-cleavage of 0.251.
Work on G29U A44U yielded a self-cleavage of 0.125.
Work on G29U A47G yielded a self-cleavage of 0.0517.
With G29U A59C the self-cleavage was 0.0619.
With G29U A61G the self-cleavage was 0.223.
G29U A64C gave a self-cleavage of 0.142.
G29U A71C showed a self-cleavage of 0.152.
G29U C37U gave a self-cleavage of 0.192.
G29U C38U showed a self-cleavage of 0.1.
With G29U C48A the self-cleavage was 0.0831.
Variant G29U C48U has a self-cleavage of 0.124.
For G29U C50U, the self-cleavage was 0.163.
Variant G29U C65G has a self-cleavage of 0.0526.
With G29U C66A the self-cleavage was 0.205.
Variant G29U C66G has a self-cleavage of 0.233.
Work on G29U G34U yielded a self-cleavage of 0.124.
Work on G29U G40A yielded a self-cleavage of 0.121.
With G29U G40C the self-cleavage was 0.0749.
With G29U G40U the self-cleavage was 0.147.
With G29U G42U the self-cleavage was 0.107.
For G29U G51A, the self-cleavage was 0.139.
In the case of G29U G51U, the self-cleavage is reported as 0.121.
G29U G54C showed a self-cleavage of 0.12.
G29U G56U gave a self-cleavage of 0.143.
Variant G29U G57A has a self-cleavage of 0.172.
For G29U G68A, the self-cleavage was 0.097.
Work on G29U G69U yielded a self-cleavage of 0.099.
With G29U U52C the self-cleavage was 0.178.
For G29U U53A, the self-cleavage was 0.103.
In the case of G29U U58A, the self-cleavage is reported as 0.154.
Work on G29U U60A yielded a self-cleavage of 0.169.
With G29U U63C the self-cleavage was 0.084.
Variant G29U U67C has a self-cleavage of 0.101.
For G29U U70G, the self-cleavage was 0.315.
Work on A30C A35G yielded a self-cleavage of 0.217.
Variant A30C A35U has a self-cleavage of 0.156.
Variant A30C A39C has a self-cleavage of 0.12.
A30C A39U showed a self-cleavage of 0.0707.
For A30C A41C, the self-cleavage was 0.315.
In the case of A30C A43C, the self-cleavage is reported as 0.261.
A30C A44G gave a self-cleavage of 0.145.
In the case of A30C A44U, the self-cleavage is reported as 0.106.
With A30C A47G the self-cleavage was 0.0558.

Source: the RNAGym collection of RNA variant scans (doi:10.7554/elife.80360)
